Test results from US20180037641A1 (WASHINGTON UNIVERSITY, published 2018).

Columns and labels:
[1] = target: recombinant mouse tau, longest isoform mTau40 (432 aa) (mouse, UniProt P10637-2 1-430, limits assumed); assay: SPR (Biacore), mouse tau immobilised, antibody injected
Description: FIGS. 30A, 30B, 30C, 30D, 30E, 30F and 30G. Characterization of anti-tau antibodies by surface plasmon resonance (SPR) and Immunoblotting. The figure depicts SPR sensorgrams showing the binding of each anti-tau antibody towards immobilized recombinant human tau (longest isoforms hTau40, 441 aa) and immobilized mouse tau (longest isoforms mTau40, 432 aa). Each antibody was run with various concentrations (0.11, 0.23, 0.46, 0.90, […], 3.7, 7.5 μg/ml) and plots are shown in the corresponding color. (FIG. 30A) SPR sensorgrams of HJ9.3 antibody binding to immobilized human tau and immobilized mouse tau (FIG. 30B). (FIG. 30C) SPR sensorgrams of HJ9.4 antibody binding to immobilized human tau and immobilized mouse tau (FIG. 30D). SPR sensorgrams of HJ8.5 antibody binding to immobilized (FIG. 30E) human and (FIG. 30F) mouse tau. (FIG. 30G) RAB soluble fractions of 3 month old tau knockout (KO), 3 month old wild-type (WT), 3 month old P301 S (3 mo) and 9 month old P301 S (9 mo) mice were analyzed by immunoblot by using the indicated anti-tau antibodies.
Surface plasmon resonance Surface plasmon resonance experiments were performed on BIAcore 2000 surface plasmon resonance instrument (GE Healthcare-BIAcore). Biacore sensor chip CM-5 was activated by using EDC (1-ethyl-3-(3-dimethylaminopropyl)-carbodiimide) and NHS (N-hydroxysuccinimide) in a 1:1 ratio for 7 minutes. […]

[2] = target: T1, recombinant human tau, longest isoform hTau40 (441 aa) (human, UniProt P10636-8 1-441); assay: SPR (Biacore), tau immobilised on CM-5 chip, antibody injected 0.78-400 nM
T1 construct: range 1-441
T1 sequence (P10636 other isoform, or with tags, fused parts or gaps limits assumed): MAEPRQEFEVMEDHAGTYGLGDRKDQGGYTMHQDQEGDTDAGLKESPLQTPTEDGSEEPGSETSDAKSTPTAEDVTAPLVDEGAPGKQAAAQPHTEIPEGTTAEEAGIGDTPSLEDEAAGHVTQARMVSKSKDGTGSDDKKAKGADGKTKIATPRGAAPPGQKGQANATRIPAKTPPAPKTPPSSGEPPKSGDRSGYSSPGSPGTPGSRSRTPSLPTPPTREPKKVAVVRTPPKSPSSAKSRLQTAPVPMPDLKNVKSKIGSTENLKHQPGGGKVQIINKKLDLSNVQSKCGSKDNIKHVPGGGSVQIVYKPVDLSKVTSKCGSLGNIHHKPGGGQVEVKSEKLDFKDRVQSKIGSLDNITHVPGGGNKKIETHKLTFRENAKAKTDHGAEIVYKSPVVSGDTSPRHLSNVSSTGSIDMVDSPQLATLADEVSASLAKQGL
Description: To characterize the binding affinity of the HJ8 and HJ9 series antibodies to mouse tau and human tau, Biacore's SPR technology was used. Biacore sensor chip CM-5 (Carboxymethylated dextran matrix) was activated by using EDC (1-ethyl-3-(3-dimethylaminopropyl)-carbodiimid) and NHS (N-hydroxysuccinimide) in 1:1 ratio. 2). Then ligand, either mouse tau or human Tau, were immobilized (20 ug/ml, in 10 mM sodium acetate pH 3.5) on Biacore CM-5 sensor chip at a flow rate of 5 μI/min. The remaining unbound area on the Biacore CM-5 sensor chip was deactivated by passage of 1 M ethanolamine pH 8.5.
Following preparation of the sensor chip surface, analytes (e.g. antibody) were injected with different concentrations (0.78 nM-400 nM) in filtered, degassed 0.01 M Hepes buffer, 0.15 M NaCl, 0.005% surfactant P20, pH 7.4 at a flow rate of 10 μI/min. All the samples were run in duplicates. After each cycle/run with single antibody concentration, the surface of the chip was regenerated by using 10 mM glycine pH 1.7, to remove the bound antibody/analyte, leaving the monomer/fibrils/ligand attached to the surface.

[3] = target: T2, endogenous murine tau (mouse brain and ISF) (mouse, UniProt P10637-2 1-430, limits assumed); assay: immunoblot of RAB soluble brain fractions of KO, WT and P301S mice
T2 construct: Mixture of isoforms from tissue; also called mouse tau (Western blot, immunostaining, ISF immunoprecipitation)
T2 sequence (P10637 other isoform, or with tags, fused parts or gaps limits assumed): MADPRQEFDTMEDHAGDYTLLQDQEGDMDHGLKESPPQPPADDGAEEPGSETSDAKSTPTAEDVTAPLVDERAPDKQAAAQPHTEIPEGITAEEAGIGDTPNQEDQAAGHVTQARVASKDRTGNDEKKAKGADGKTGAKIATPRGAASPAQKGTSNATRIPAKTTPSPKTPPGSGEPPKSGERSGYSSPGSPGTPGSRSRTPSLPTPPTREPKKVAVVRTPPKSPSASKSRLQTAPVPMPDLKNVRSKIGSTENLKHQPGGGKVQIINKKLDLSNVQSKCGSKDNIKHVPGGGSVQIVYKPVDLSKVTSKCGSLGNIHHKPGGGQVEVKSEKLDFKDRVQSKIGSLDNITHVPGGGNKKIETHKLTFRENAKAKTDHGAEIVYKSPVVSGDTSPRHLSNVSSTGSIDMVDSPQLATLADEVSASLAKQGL

[4] = target: T1, recombinant human tau, longest isoform …; assay: SPR (BIAcore 2000), tau immobilised on CM-5 chip, antibody injected 0.11-7.5 µg/ml, 1:1 Langmuir global fit
Description: Prior to testing in vivo, the binding affinities and epitopes of the antibodies, which are all lgG2b isotype, were determined. Human and mouse tau was immobilized on a sensor chip CMS for surface plasmon resonance (SPR) (FIGS. 30A-30G). […] The association (Kₐ) and dissociation (Kd) was calculated by using BIAevaluation software (Biacore AB) selecting Fit kinetics simultaneous Kd/Kₐ (Global fitting) with 1:1 (Langmuir) interaction model. […] The epitope of HJ9.3 was mapped to the repeat domain (RD) region, between amino acids 306-320. […] It binds to human tau (FIG. 30E) but not to mouse tau (FIG. 30F). […] The epitope of HJ8.5 was mapped to amino acids 25-30. All 3 anti-tau antibodies strongly recognized human tau fibrils on SPR (FIG. 31). Because the fibrils have multiple identical epitopes, the association and dissociation rates could not be directly calculate.
Surface plasmon resonance Surface plasmon resonance experiments were performed on BIAcore 2000 surface plasmon resonance instrument (GE Healthcare-BIAcore). Biacore sensor chip CM-5 was activated by using EDC (1-ethyl-3-(3-dimethylaminopropyl)-carbodiimide) and NHS (N-hydroxysuccinimide) in a 1:1 ratio for 7 minutes.

Sequence of recombinant mouse tau, longest isoform mTau40 (432 aa) (P10637 other isoform, or with tags, fused parts or gaps limits assumed): as above

B1: HJ8.5 (antibody, V domains shown)
VH: EVKVEESGGGLVQPGGSMKLSCVVSGFTFSNYWVNWVRQSPEKGLEWVAQIRLKSDNYATHYEESVKGRFTISRDDSKSSVYLQMNNLRAEDSGIYYCTNWEDYWGQGTTLTVSS
VL: DIVLTQSPASLAVSLGQRATISCRASQSVSTSRYSYIHWYQQKPGQPPKLLIKYASNLESGVPARFSGSGSGTDFTLNIHPLEEEDAATYYCHHSWEIPLTFGAGTKLELK
notes: also called HJ8.5B (biotinylated)
[1]
  binding result: no binding (tested: 7.5 µg/ml)
[2]
  Kd: 0.336 pM
  koff: 4.34e-08 s⁻¹
  kon: 130000 M⁻¹ s⁻¹
[3]
  binding result: no binding
[4]
  Kd: 0.336 pM
  koff: 4.34e-08 s⁻¹
  kon: 130000 M⁻¹ s⁻¹
